Here are results for nine molecules from US20220340684A1 (AGENCY FOR SCIENCE TECHNOLOGY AND RESEARCH, published 2022).

Usually Kd stands for a measure of binding affinity in units of concentration. What is called koff is a measure of how fast the partners let go of each other. What is called kon is a measure of how fast the partners come together.

B1: Recombinant human TRIM21 PRYSPRY domain (His-tagged, expressed in E. coli BL21 (DE3)) (receptor)
chain: VHITLDPDTANPWLILSEDRRQVRLGDTQQSIPGNEERFDSYPMVLGAQHFHSGKHYWEVDVTGKEAWDLGVCRDSVRRKGHFLLSSKSGFWTIWLWNKQKYEAGTYPQTPLHLQVPPCQVGIFLDYEAGMVSFYNITDHGSLIYSFSECAFTGPLRPFFSPGFNDGGKNTAPLTLCPLNIGSQGSTDY
modifications: biotinylated when used as bait for biopanning and in the ELISAs (sites not given)
notes: Purified on Ni-NTA and by gel filtration; Analyte in SPR; biotinylated form used in biopanning and ELISA; also called PRYSPRY domain of TRIM21; bait protein; not shown: N-terminal His-tag of the pQE-2 vector
B2: Fc region SN 1 of FIG. 13 (IgG1 256P/433S/434H/440G) (other)
chain: PCPAPELLGGPSVFLFPPKPKDTLMISRPPEVTCVVVDVSHEDPEVKFNWYVDGVEVHNAKTKPREEQYNSTYRVVSVLTVLHQDWLNGKEYKCKVSNKALPAPIEKTISKAKGQPREPQVYTLPPSRDELTKNQVSLTCLVKGFYPSDIAVEWESNGQPENNYKTTPPVLDSDGSFFLYSKLTVDKSRWQQGNVFSCSVMHEALSHHYTQKGLSLSPGK
B3: Fc region SN 10 of FIG. 13 (IgG1 256P/433V/434H/440R) (other)
chain: B2 chain with S206V, G213R
B4: Fc region SN 9 of FIG. 13 (IgG1 256P/433V/434H) (other)
chain: B2 chain with S206V, G213S
B5: Fc region SN 2 of FIG. 13 (IgG1 256P/433S/434H) (other)
chain: B2 chain with G213S
B6: Fc region SN 92 of FIG. 13 (IgG1 256A/436F/440M) (other)
chain: B2 chain with P29A, S206H, H207N, Y209F, G213M
B7: Fc region SN 32 of FIG. 13 (IgG1 256P/433T/434R) (other)
chain: B2 chain with S206T, H207R, G213S
B8: modified Fc (other)
Fc polypeptide (CH2-CH3): B2 chain with S206T, H207R, Y209F, G213I
notes: also called PN04-90 Fc
B9: Fc region SN 46 of FIG. 13 (IgG1 256P/433V/434R) (other)
chain: B2 chain with S206V, H207R, G213S

In test [1] the target is T1, Wildtype IgG1 Fc (reference in the SPR table of Example 4) (human, UniProt P0DOX5 230-449 = IgG part, limits assumed).
T1 construct: also called wildtype Fc
The experiment in a line: SPR as in Example 1.10, TRIM21 PRYSPRY domain.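 Further: antibodies amine-coupled to a GLC chip on a ProteON XPR36, TRIM21 flowed at five concentrations in PBS with 0.05% Tween-20, kinetics fitted to a Langmuir 1:1 model.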

For test [2], the target named is B1. Put plainly: SPR as in Example 1.10, TRIM21 PRYSPRY domain.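 Further: antibodies amine-coupled to a GLC chip on a ProteON XPR36, TRIM21 flowed at five concentrations in PBS with 0.05% Tween-20, kinetics fitted to a Langmuir 1:1 model.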
Test [3] addresses B1. Put plainly: ELISA, 0.125 µg/ml biotinylated PRYSPRY domain. On the technique in general: An ELISA detects its analyte on a solid surface through an enzyme-linked reagent.

Substitutions are numbered along the chain they refer to.

For B1, in test [1], the affinity, expressed as Kd, was 126000 pM; the koff worked out at 0.0812 s⁻¹; the on-rate (kon) turned out to be 647000 M⁻¹ s⁻¹.
As for B2, in test [2], the Kd came to 55 pM, the koff was 0.000388 s⁻¹ and the on-rate (kon) amounted to 7.05e+06 M⁻¹ s⁻¹.
As to B3, in test [2], the dissociation constant (Kd) is 892 pM, the koff turned out to be 0.00046 s⁻¹ and the kon was found to be 515000 M⁻¹ s⁻¹.
As to B4, in test [2], the Kd was found to be 95.7 pM, the koff turned out to be 0.000481 s⁻¹ and the kon was determined as 5.03e+06 M⁻¹ s⁻¹.
On to B5, for which, in test [2], the equilibrium dissociation constant (Kd) came out at 156 pM, the koff stood at 0.000727 s⁻¹ and the on-rate constant (kon) amounted to 4.66e+06 M⁻¹ s⁻¹.
On the same counts, the results for B6 are 3680 pM, 0.0145 s⁻¹ and 3.94e+06 M⁻¹ s⁻¹.
With B7, in test [2], the dissociation constant Kd was found to be 498 pM, the koff was determined as 0.00053 s⁻¹ and the kon came to 1.06e+06 M⁻¹ s⁻¹.
For the molecule B8, the binding result in test [3] is listed as “binds”.
In the case of B9, in test [2], the Kd amounted to 169 pM, the koff is 0.000124 s⁻¹ and the on-rate constant (kon) was 730000 M⁻¹ s⁻¹.
